Source: patent US20230106247A1 (L AND L BIO CO LTD NINGBO CHINA, published 2023)
Changes are numbered by the printed parent chain. Where two headings read alike, the source gives them in different places.

Tests used:
[1] = target: T1, human Sirpα-V1-his (human, UniProt P78324 31-373); assay: ELISA
T1 construct: range 31-373; Bought (Sino Biological 11612-H08H) or expressed in-house; also called hSirpα-V1; hSirpα-V1-his

[2] = target: T2, human Sirpα-V1-hFc (human, UniProt P78324 31-373); assay: blocking ELISA, competitor CD47-his
T2 construct: range 31-373; also called hSirpα (dimer); hSirpα-V1-hFc (dimer); not shown: human IgG1 Fc region at the C-terminus
Protocol: (§1) The recombinant proteins such as human Sirpα-V1-hFc/Sirpα-V1-his were diluted to concentrations of 5 μg/mL or 2 μg/mL respectively with a PBS buffer at pH 7.4, and then added into a 96-well ELISA plate (Corning, CLS3590-100EA) at a volume of 50 μL/well, and placed in an incubator at 37° C. for 2 hours. After the liquid was discarded, the wells were added with a blocking solution of 5% skimmed milk (skimmed milk powder available from Bright Dairy) diluted with PBS at 230 μL/well, and incubated in an incubator at 37° C. for 3 hours, or placed overnight at 4° C. (for 16-18 hours) for blocking. […] The plate was washed for 5 times, added with 50 μL/well of streptavidin-HRP (GenScript, M00091) or anti-his-HRP secondary antibody (GenScript, A00612) diluted at 1:1000, incubated at 37° C. for 1 hour, and then washed with PBST for 5 times. Each well was added with 50 μL of TMB (Surmodic, Cat #: TTMB-1000-01) for color development, and added with 50 μL/well of 1 M H₂SO₄ to stop the reaction. The readings on a microplate reader (MultiskanGO Thermo, Model 51119200) were subjected to data analysis by GraphPad prism 5. […]

[3] = target: T1, human Sirpα-V1-his; assay: blocking ELISA, competitor CD47-hFc
Protocol: (§2) The recombinant proteins such as human Sirpα-V1-hFc/Sirpα-V1-his were diluted to concentrations of 5 μg/mL or 2 μg/mL respectively with a PBS buffer at pH 7.4, and then added into a 96-well ELISA plate (Corning, CLS3590-100EA) at a volume of 50 μL/well, and placed in an incubator at 37° C. for 2 hours. After the liquid was discarded, the wells were added with a blocking solution of 5% skimmed milk (skimmed milk powder available from Bright Dairy) diluted with PBS at 230 μL/well, and incubated in an incubator at 37° C. for 3 hours, or placed overnight at 4° C. (for 16-18 hours) for blocking. […] The plate was washed for 5 times, added with 50 μL/well of streptavidin-HRP (GenScript, M00091) or anti-his-HRP secondary antibody (GenScript, A00612) diluted at 1:1000, incubated at 37° C. for 1 hour, and then washed with PBST for 5 times. Each well was added with 50 μL of TMB (Surmodic, Cat #: TTMB-1000-01) for color development, and added with 50 μL/well of 1 M H₂SO₄ to stop the reaction. The readings on a microplate reader (MultiskanGO Thermo, Model 51119200) were subjected to data analysis by GraphPad prism 5.

[4] = target: T3, Cyno Sirpα L937 (cynomolgus); assay: ELISA
T3 construct: also called RB3-5; Cyno Sirpα polymorphism 4 (L937)
T3 chain: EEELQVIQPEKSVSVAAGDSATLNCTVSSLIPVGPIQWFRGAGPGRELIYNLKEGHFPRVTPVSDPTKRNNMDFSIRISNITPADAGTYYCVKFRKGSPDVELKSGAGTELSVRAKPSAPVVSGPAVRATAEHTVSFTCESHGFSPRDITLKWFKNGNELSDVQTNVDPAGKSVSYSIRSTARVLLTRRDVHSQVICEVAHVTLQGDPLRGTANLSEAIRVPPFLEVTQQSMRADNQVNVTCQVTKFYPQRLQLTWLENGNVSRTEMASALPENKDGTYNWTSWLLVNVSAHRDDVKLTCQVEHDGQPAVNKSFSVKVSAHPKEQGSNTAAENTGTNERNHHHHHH

[5] = target: T4, Cyno Sirpα L932 (cynomolgus); assay: ELISA
T4 chain: T3 chain with P62A

[6] = target: T5, Cyno Sirpα L933 (cynomolgus); assay: ELISA
T5 construct: extracellular domain; also called Cyno Sirpα polymorphism 2 (L933)

[7] = target: T6, Cyno Sirpα L936 (cynomolgus); assay: ELISA
T6 construct: also called RB3-3; Cyno Sirpα polymorphism 3 (L936)
T6 chain: T3 chain with S28T, N51H, L52Q, P62S, D65E, P66S, R77H, L103V, V163F, L185V

[8] = target: T2, human Sirpα-V1-hFc; assay: blocking ELISA, competitor CD47-his; remark: listed apart in the source
Protocol: as §2

[9] = target: T7, human T cells (expressing Sirpγ) (human, UniProt Q9P1W8 29-387); assay: flow cytometry on PBMC
T7 construct: whole, on cells; The target as printed is the cell; also called human PBMCs (T cells)

[10] = target: T1, human Sirpα-V1-his; assay: blocking ELISA, competitor CD47-hFc; remark: listed apart in the source
Protocol: as §1

[11] = target: T8, human Sirpα-V1 on CHO-K1 cells (CHO-K1 hSirpα+ cell line) (human, UniProt P78324 31-504); assay: cell ELISA on CHO-K1 hSirpα+ cells
T8 construct: whole, on cells; also called hSirpα-v1+ cell strain
Text: The readings on a microplate reader (MultiskanGO Thermo, Model 51119200) were subjected to data analysis by GraphPad prism 5.
The light and heavy chain variable region sequences of the aforementioned antibody of the present disclosure and the constant regions of different IgG types, for example human IgG1 (hIgG1), human IgG2 (hIgG2), human IgG3 (hIgG3) or human IgG4 (hIgG4), human light chain κ and λ types; murine mIgG1, mIgG2 or mIgG3, murine light chain κ and λ types, etc. were recombined, expressed and purified to obtain an entire human-murine chimeric antibody and a murine antibody.

[12] = target: T1, human Sirpα-V1-his; assay: ELISA; remark: listed apart in the source
Protocol: (§3) Different antigens (recombinant proteins) such as the human Sirpα-V1-hFc, Sirpα-V1-his, Sirpα-V2-his, Sirpβ-his, Sirpγ-his, monkey Sirpα-his (cynoSirpα-his) or NOD-mSirpα-his described in Example 1 were diluted with a PBS buffer at pH7.4 to concentrations of 1 μg/mL, 2 μg/mL or 5 μg/mL, added into a 96-well ELISA plate (Corning, CLS3590-100EA) at a volume of 50 μL/well, and placed in an incubator at 37° C. for 2 hours. After the liquid was discarded, the wells were added with a blocking solution of 5% skimmed milk (skimmed milk powder available from Bright Dairy) diluted with PBS at 230 μL/well, and incubated in an incubator at 37° C. for 3 hours, or placed overnight at 4° C. (for 16-18 hours) for blocking. […] The plated was washed with PBST for 5 times, then added with 50 μL/well of TMB chromogenic substrate (KPL, Cat #: 52-00-03), incubated at room temperature for 10-15 min, added with 50 μL/well of 1 M H₂SO₄ to stop the reaction, and read by a […] Go microplate reader (ThermoFisher, Cat #: 51119200) for the absorbance value at 450 nm, and then a clone with high binding activity was selected or a EC₅₀ value was calculated according to the OD value. […]

[13] = target: human Sirpα-V2-his (human); assay: ELISA
Protocol: as §3

Chain of human Sirpα-V2-his (human) (chain, as listed by the source): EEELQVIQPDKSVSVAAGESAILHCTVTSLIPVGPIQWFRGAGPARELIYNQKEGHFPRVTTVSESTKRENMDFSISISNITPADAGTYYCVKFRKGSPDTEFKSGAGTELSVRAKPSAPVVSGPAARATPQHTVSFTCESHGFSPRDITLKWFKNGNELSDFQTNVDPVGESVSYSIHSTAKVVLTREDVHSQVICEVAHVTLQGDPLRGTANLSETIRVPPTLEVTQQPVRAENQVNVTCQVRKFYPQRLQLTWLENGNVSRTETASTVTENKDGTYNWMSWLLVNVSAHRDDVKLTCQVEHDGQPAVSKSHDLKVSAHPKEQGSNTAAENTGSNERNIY
T7 sequence (Q9P1W8 29-387): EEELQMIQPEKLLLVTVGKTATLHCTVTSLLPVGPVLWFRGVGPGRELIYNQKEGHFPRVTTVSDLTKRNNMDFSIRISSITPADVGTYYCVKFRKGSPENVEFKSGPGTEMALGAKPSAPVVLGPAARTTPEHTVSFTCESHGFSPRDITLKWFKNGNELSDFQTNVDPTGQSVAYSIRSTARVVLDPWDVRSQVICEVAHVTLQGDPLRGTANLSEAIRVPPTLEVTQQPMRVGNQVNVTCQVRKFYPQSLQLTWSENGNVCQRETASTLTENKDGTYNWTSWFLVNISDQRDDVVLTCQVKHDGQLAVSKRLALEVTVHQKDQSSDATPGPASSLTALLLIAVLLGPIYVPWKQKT

- EC50 [1]: 0.093 nM
- IC50 [2]: 5.7 nM
- IC50 [3]: 9.98 nM
- EC50 [4]: 0.099 nM
- EC50 [5]: 0.1 nM
- EC50 [6]: 0.14 nM
- EC50 [7]: 0.099 nM
- IC50 [8]: 5.48 nM
- binding result [9]: no binding (tested: 10 µg/mL)
- IC50 [10]: 5.54 nM
- EC50 [11]: 0.29 nM
- EC50 [12]: 0.16 nM
- EC50 [13]: 0.14 nM
B1: human-murine chimeric antibody mab14c (antibody, human IgG4 S228P, kappa, V domains shown)
VH: QVHLQQPGAELVKPGASVKLSCKASGYNFNIYWINWVKQRPGQGLEWIGNIYPSSISTNYNEKFKTKATLTVDKSSNTVYMQFSSLTSEDSAVYYCARSEGTYYGGRYEGDWFGYWGQGTLVTVSA
VL: DIQMTQTTSSLSASLGDRVTISCRASQDIRNYLNWYQQKPDGTVKLLIYFTSTLHSGVPSRFSGSGSGTDYSLTISNLEQEDIATYFCQQGNTLPWTFGGGTKLEIKR
notes: hIgG4, κ
